Reference: patent US20200368125A1, “FAST-ACTING BIOCIDAL CLEANSING COMPOSITION” (Conopco, Inc., d/b/a UNILEVER, priority 2017, published 2020)

Assay: Zeta potential measured using Malvern Zetasizer
Type: physicochemical
Details: 2 ml sample; alkaline (KOH) aqueous medium
Description: The Zeta Potential was measured using Malvern Zetasizer (2 ml sample). […] The error bar of ±0.2 mV […]. […] Usually Proteins tend to destabilise/degrade in the presence of strong alkalis like KOH but the stability of the complex, so prepared, was confirmed by ^1H NMR. […] Surface charge around protein changes with change with complex.

In the case of sericin, the “Zeta Potential” value is reported as −15±0.2 mV.
